{"source": "patent US20150017154A1", "about": "(NEXVET AUSTRALIA, published 2015)", "key": {"[1]": {"biological_target": "T1, complement C1q (from human serum) (human, UniProt P02745 23-245; P02746 28-253; P02747 29-245)", "T1 construct": "Native C1q in human serum diluted 1/100", "T1 sequence (P02745 23-245 limits assumed, chain 1 of 3)": "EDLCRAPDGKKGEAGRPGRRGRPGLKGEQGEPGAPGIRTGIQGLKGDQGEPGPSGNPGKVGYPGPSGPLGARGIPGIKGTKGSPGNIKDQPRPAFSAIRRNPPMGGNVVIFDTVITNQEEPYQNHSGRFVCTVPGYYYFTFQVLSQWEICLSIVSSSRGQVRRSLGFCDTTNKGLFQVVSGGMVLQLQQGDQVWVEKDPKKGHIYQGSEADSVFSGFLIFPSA", "T1 sequence (P02746 28-253 limits assumed, chain 2 of 3)": "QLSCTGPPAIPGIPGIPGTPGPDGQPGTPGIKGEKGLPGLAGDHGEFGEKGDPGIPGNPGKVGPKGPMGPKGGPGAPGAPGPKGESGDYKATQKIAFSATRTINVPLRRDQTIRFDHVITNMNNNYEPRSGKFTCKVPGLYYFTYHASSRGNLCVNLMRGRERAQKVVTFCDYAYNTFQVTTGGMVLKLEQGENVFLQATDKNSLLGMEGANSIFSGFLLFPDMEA", "T1 sequence (P02747 29-245 limits assumed, chain 3 of 3)": "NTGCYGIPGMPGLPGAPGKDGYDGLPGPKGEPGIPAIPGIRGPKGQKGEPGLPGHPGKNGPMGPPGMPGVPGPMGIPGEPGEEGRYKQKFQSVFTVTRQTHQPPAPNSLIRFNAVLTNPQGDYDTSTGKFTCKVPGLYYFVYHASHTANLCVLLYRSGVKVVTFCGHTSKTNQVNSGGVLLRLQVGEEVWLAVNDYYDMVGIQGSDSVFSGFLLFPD", "assay": "C1q ELISA: antibody captured on mouse NGF-coated plate, human serum, anti-C1q-HRP", "experimental": "CHO cell transfectant supernatants from Example 2 were incubated with plates coated with […] NGF to capture the antibodies. The plates were washed and then incubated with human serum and bound complement C1q was measured by binding of anti-human C1q polyclonal antibody HRP and developed as above.\nPlates were coated with 100 μl/well of 5 μg/ml mouse NGF and blocked with 5% BSA/PBS. Coated wells were incubated for 1 hour at room temperature with cell culture supernatants, containing recombinant caninised anti-NGF IgG, diluted in PBS/1% BSA (100 μl/well). The plates were washed and incubated for 1 hour at room temperature with 100 μl/well of human serum diluted 1/100 in veronal buffered saline containing 0.5 mM MgCl₂, 2 mM CaCl₂, 0.05% Tween-20, 0.1% gelatin and 0.5% BSA. After washing, plates were incubated with 100 μl of a 1/800 dilution of sheep anti-C1q-HRP (Serotec) in PBS/1% BSA. After washing, plates were developed by the addition of 100 μl TMB substrate (Thermo Scientific). Development was stopped by the addition of 100 μl of 2N H₂SO₄ and absorbance read at 450 nm."}, "mouse NGF": {"biological_target": "T2, mouse NGF (mouse, UniProt P01139 122-241, limits assumed)", "T2 construct": "Coated on ELISA plates; also called murine NGF", "T2 sequence (P01139 122-241 limits assumed)": "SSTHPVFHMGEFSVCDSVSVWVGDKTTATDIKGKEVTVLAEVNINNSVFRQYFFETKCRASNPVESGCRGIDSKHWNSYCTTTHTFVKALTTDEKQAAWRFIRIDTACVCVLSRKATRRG", "assay": "ELISA, CHO supernatant on coated NGF, anti-canine IgG-HRP", "experimental": "Combinations of caninised heavy and light chain cDNAs were transfected into CHO cells, the supernatants harvested and reacted in ELISA format with either canine or murine NGF. Following incubation and wash steps, the bound canine antibody was detected by reactivity with a goat-anti canine IgG specific polyclonal antibody linked to horseradish peroxidase (HRP) and developed using TMB. The optical density of the resulting product was measured at 450 nm and compared with that from mock empty vector transfected supernatant (denoted as “Mock” in FIG. 1)."}}}
{"binder": "caninised anti-NGF antibody comprising the caN-HCA heavy chain and caN-kLC light chain (antibody, Tested as CHO cell transfectant supernatant; also called A-HCA; caN-HCA+caN-kLC1) heavy: EVQLVESGGDLVNPGGTLTLSCVVSGFSLTNNNVNWVRQALGRGLEWVGGVWAGGATDYNSALKSRLTITRDTSKSTVFLKMHSLQSEDTATYYCARDGGYSSSTLYAMDAWGQGTLVTVSSASTTAPSVFPLAPSCGSTSGSTVALACLVSGYFPEPVTVSWNSGSLTSGVHTFPSVLQSSGLHSLSSMVTVPSSRWPSETFTCNVVHPASNTKVDKPVFNECRCTDTPPCPVPEPLGGPSVLIFPPKPKDILRITRTPEVTCVVLDLGREDPEVQISWFVDGKEVHTAKTQSREQQFNGTYRVVSVLPIEHQDWLTGKEFKCRVNHIDLPSPIERTISKARGRAHKPSVYVLPPSPKELSSSDTVSITCLIKDFYPPDIDVEWQSNGQQEPERKHRMTPPQLDEDGSYFLYSKLSVDKSRWQQGDPFTCAVMHETLQNHYTDLSLSHSPGK light: DIQMTQSPASLSLSQEEKVTITCRASEDIYNALAWYQQKPGQAPKLLIYNTDTLHTGVPSRFSGSGSGTEYSLTINSLESEDVAVYFCQHYFHYPRTFGAGTKVELKRNDAQPAVYLFQPSPDQLHTGSASVVCLLNSFYPKDINVKWKVDGVIQDTGIQESVTEQDKDSTYSLSSTLTMSSTEYLSHELYSCEITHKSLPSTLIKSFQRSECQRVD", "values": [{"measurement": "binding result", "setting": "[1]", "result": "no binding"}, {"measurement": "binding result", "setting": "mouse NGF", "result": "binds"}]}
